Experimental data from patent EP3831849A1 (LamKap Bio beta AG, dated 2021).

T1: biotinylated recombinant human CEACAM5 (human, UniProt P06731 35-685, biotin on the C-terminal Avitag)
T1 construct: also called CD66e; not shown: C-terminal Avitag plus hexa-histidine tag, human Fc or mouse Fc
T1 sequence: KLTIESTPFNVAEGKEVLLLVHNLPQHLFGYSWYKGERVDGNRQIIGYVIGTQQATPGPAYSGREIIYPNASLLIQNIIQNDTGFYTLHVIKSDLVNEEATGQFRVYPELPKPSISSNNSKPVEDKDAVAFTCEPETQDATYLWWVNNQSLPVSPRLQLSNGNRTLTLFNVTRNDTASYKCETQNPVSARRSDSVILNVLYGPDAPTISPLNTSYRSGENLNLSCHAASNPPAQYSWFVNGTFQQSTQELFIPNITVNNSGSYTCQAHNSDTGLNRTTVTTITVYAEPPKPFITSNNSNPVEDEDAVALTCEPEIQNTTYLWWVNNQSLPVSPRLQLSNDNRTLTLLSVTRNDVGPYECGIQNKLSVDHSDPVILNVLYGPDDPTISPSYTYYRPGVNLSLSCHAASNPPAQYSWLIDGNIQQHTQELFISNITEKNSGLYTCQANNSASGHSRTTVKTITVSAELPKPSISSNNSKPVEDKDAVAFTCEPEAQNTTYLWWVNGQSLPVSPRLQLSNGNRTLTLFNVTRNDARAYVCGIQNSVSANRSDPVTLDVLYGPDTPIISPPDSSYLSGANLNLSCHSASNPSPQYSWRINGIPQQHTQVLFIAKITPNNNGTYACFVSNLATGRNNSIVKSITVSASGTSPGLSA

T2: human CEACAM5 expressed on MKN-45 wt cells (human, UniProt P06731 35-702)
T2 construct: MKN-45 cells also express CD47 and CEACAM6; also called CEACAM5 on MKN45
T2 sequence: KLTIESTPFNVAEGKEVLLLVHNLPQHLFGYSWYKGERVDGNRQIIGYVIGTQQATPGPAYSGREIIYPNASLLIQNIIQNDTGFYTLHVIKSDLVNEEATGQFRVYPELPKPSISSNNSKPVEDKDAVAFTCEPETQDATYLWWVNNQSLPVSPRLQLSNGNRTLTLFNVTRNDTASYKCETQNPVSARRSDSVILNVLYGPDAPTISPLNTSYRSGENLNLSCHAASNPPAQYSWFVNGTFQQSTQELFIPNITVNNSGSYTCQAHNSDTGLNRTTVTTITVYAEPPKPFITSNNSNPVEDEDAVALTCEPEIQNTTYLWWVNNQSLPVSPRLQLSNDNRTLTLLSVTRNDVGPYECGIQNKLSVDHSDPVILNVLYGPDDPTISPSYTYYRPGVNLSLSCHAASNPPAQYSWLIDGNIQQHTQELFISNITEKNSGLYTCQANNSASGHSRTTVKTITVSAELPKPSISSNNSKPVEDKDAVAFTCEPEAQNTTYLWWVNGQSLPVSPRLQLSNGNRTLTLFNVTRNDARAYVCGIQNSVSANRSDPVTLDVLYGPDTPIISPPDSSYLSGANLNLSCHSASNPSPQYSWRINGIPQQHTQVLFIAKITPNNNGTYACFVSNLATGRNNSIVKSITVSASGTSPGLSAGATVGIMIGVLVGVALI


Assays:
[1] = target: T1, biotinylated recombinant human CEACAM5; assay: ELISA; biotinylated recombinant protein on streptavidin plate; bivalent mAb titrated
[2] = target: T3, recombinant cynomolgus monkey CEACAM5 (cynomolgus monkey (macaca fascicularis)); assay: as above
T3 construct: also called cyno CEACAM5; cynomolgus CEACAM5

[3] = target: T4, human CD47 expressed at the surface of MKN45 cells (human, UniProt Q08722 19-323); assay: inhibition of SIRPα mouseFc binding to CD47 on MKN45 cells; imaging (CX5)
T4 construct: whole, on cells; also called IAP
T4 sequence (Q08722 19-323): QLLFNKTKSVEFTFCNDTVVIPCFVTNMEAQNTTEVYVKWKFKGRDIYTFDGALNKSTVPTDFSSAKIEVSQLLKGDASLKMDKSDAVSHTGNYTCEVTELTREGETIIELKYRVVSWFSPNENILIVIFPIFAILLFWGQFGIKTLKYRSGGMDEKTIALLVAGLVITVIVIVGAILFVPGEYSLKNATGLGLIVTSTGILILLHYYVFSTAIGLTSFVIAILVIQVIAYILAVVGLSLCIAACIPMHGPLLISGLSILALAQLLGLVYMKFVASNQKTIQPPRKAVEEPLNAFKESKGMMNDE

[4] = target: T2, human CEACAM5 expressed on MKN-45 wt …; assay: flow cytometry on MKN-45 wt cells (express CEACAM5 and CD47)
[5] = target: T2, human CEACAM5 expressed on MKN-45 wt …; assay: cell-based or functional assay

Binder	EC50 [1] [nM]	EC50 [2] [nM]	IC50 [3] [nM]	EC50 [4] [nM]	Emax (MFI) [4] [MFI]	EC50 (µg/mL) of phagocytosis [5] [µg/mL]
AC56 (antibody, human IgG1, lambda, V domains shown, Bivalent IgG1 mAb; 6 carries the IgG1 Fc) VH: not shown VL: QSVLTQPPSVSGAPGQRVTISCTGSSSNIINNSYVHWYQQLPGTAPKLLIYAPSNRPSGVPDRFSGSKSGTSASLAITGLQAEDEADYYCQSYDTTGVMPTPVFGGGTKLTVLG	0.02	0.02				
AC57 (antibody, human IgG1, lambda, V domains shown, Bivalent IgG1 mAb; 6 carries the IgG1 Fc) VH: not shown VL: QSVLTQPPSVSGAPGQRVTISCTGSSSNIINNSYVHWYQQLPGTAPKLLIYAPSNRPSGVPDRFSGSKSGTSASLAITGLQAEDEADYYCQSYDTRFVVPTPVFGGGTKLTVLG	0.01	0.02				
AC41K2 H-CL1 (bispecific antibody, human IgG1, kappa, lambda, CEACAM5xCD47 κλ body, IgG1, common heavy chain) heavy: not shown light 1: not shown light 2: DIQMTQSPSSLSASVGDRVTITCRASQSISSYLNWYQQKPGKAPKLLIYAASSLQSGVPSRFSGSGSGTDFTLTISSLQPEDFATYYCQQMHPRAPKTFGGGTKLTVLGQPKAAPSVTLFPPSSEELQANKATLVCLISDFYPGAVTVAWKADSSPVKAGVETTTPSKQSNNKYAASSYLSLTPEQWKSHRSYSCQVTHEGSTVEKTVAPTECS			6.8	146	1.52e+06	
AC43K2 H-CL1 (bispecific antibody, human IgG1, kappa, lambda, CEACAM5xCD47 κλ body, IgG1, common heavy chain; CEACAM arm light chain fully kappa, CD47 arm light chain hybrid) heavy: not shown light 1: not shown light 2: DIQMTQSPSSLSASVGDRVTITCRASQSISSYLNWYQQKPGKAPKLLIYAASSLQSGVPSRFSGSGSGTDFTLTISSLQPEDFATYYCQQMHPRAPKTFGGGTKLTVLGQPKAAPSVTLFPPSSEELQANKATLVCLISDFYPGAVTVAWKADSSPVKAGVETTTPSKQSNNKYAASSYLSLTPEQWKSHRSYSCQVTHEGSTVEKTVAPTECS			3.2	121	2.08e+06	
K2AC54 (bispecific antibody, human IgG1, kappa, lambda, 6 is full length) heavy: not shown light 1: QSVLTQPPSVSGAPGQRVTISCTGSSSNIHDVGYVHWYQQLPGTAPKLLIYGASGRPSGVPDRFSGSKSGTSASLAITGLQAEDEADYYCQSYDTRQVVPTPVFGGGTKLTVLGQPKAAPSVTLFPPSSEELQANKATLVCLISDFYPGAVTVAWKADSSPVKAGVETTTPSKQSNNKYAASSYLSLTPEQWKSHRSYSCQVTHEGSTVEKTVAPTECS light 2: not shown			0.16	19	2.75e+06	0.3
K2AC55 (bispecific antibody, human IgG1, kappa, lambda, 6 is full length) heavy: not shown light 1: QSVLTQPPSVSGAPGQRVTISCTGSSSNIHDVGYVHWYQQLPGTAPKLLIYGASGRPSGVPDRFSGSKSGTSASLAITGLQAEDEADYYCQSYDTSAVFPTPVFGGGTKLTVLGQPKAAPSVTLFPPSSEELQANKATLVCLISDFYPGAVTVAWKADSSPVKAGVETTTPSKQSNNKYAASSYLSLTPEQWKSHRSYSCQVTHEGSTVEKTVAPTECS light 2: not shown			1.6	221	3.9e+06	0.9
K2AC57 (bispecific antibody, human IgG1, kappa, lambda, 6 is full length) heavy: not shown light 1: QSVLTQPPSVSGAPGQRVTISCTGSSSNIINNSYVHWYQQLPGTAPKLLIYAPSNRPSGVPDRFSGSKSGTSASLAITGLQAEDEADYYCQSYDTRFVVPTPVFGGGTKLTVLGQPKAAPSVTLFPPSSEELQANKATLVCLISDFYPGAVTVAWKADSSPVKAGVETTTPSKQSNNKYAASSYLSLTPEQWKSHRSYSCQVTHEGSTVEKTVAPTECS light 2: not shown			1.1	91	2.26e+06	1.6
K2AC52 (bispecific antibody, human IgG1, kappa, lambda, 6 is full length) heavy: not shown light 1: QSVLTQPPSVSGAPGQRVTISCTGSSSNIHDVGYVHWYQQLPGTAPKLLIYGASGRPSGVPDRFSGSKSGTSASLAITGLQAEDEADYYCQSYDTKREFPTPVFGGGTKLTVLGQPKAAPSVTLFPPSSEELQANKATLVCLISDFYPGAVTVAWKADSSPVKAGVETTTPSKQSNNKYAASSYLSLTPEQWKSHRSYSCQVTHEGSTVEKTVAPTECS light 2: not shown			1.1	219	3.3e+06	1
K2AC56 (bispecific antibody, human IgG1, kappa, lambda, 6 is full length) heavy: not shown light 1: QSVLTQPPSVSGAPGQRVTISCTGSSSNIINNSYVHWYQQLPGTAPKLLIYAPSNRPSGVPDRFSGSKSGTSASLAITGLQAEDEADYYCQSYDTTGVMPTPVFGGGTKLTVLGQPKAAPSVTLFPPSSEELQANKATLVCLISDFYPGAVTVAWKADSSPVKAGVETTTPSKQSNNKYAASSYLSLTPEQWKSHRSYSCQVTHEGSTVEKTVAPTECS light 2: not shown			2.8	47	1.59e+06	5
K2AC53 (bispecific antibody, human IgG1, kappa, lambda, 6 is full length) heavy: not shown light 1: QSVLTQPPSVSGAPGQRVTISCTGSSSNIHDVGYVHWYQQLPGTAPKLLIYGASGRPSGVPDRFSGSKSGTSASLAITGLQAEDEADYYCQSYDGRAVFPTPVFGGGTKLTVLGQPKAAPSVTLFPPSSEELQANKATLVCLISDFYPGAVTVAWKADSSPVKAGVETTTPSKQSNNKYAASSYLSLTPEQWKSHRSYSCQVTHEGSTVEKTVAPTECS light 2: not shown			0.3	38	2.63e+06	0.8
K2AC41 (bispecific antibody, human IgG1, kappa, lambda, 6 is full length; CEACAM arm light chain hybrid (VK + lambda CL), CD47 arm (K2) fully kappa) heavy: not shown light 1: DIQMTQSPSSLSASVGDRVTITCQASQEIAATLNWYQQKPGKAPKLLIYNYSTLETGVPSRFSGSGSGTDFTFTISSLQPEDIATYYCQQVGLNPENTTFGGGTKLTVLGQPKAAPSVTLFPPSSEELQANKATLVCLISDFYPGAVTVAWKADSSPVKAGVETTTPSKQSNNKYAASSYLSLTPEQWKSHRSYSCQVTHEGSTVEKTVAPTECS light 2: not shown			3.7	145	1.41e+06	
K2AC43 (bispecific antibody, human IgG1, kappa, lambda, 6 is full length; CEACAM arm light chain hybrid, CD47 arm fully kappa) heavy: not shown light 1: DIQMTQSPSSLSASVGDRVTITCQASQNIPRTINWYQQKPGKAPKLLIYDISNLETGVPSRFSGSGSGTDFTFTISSLQPEDIATYYCQQVGLNPELTTFGGGTKLTVLGQPKAAPSVTLFPPSSEELQANKATLVCLISDFYPGAVTVAWKADSSPVKAGVETTTPSKQSNNKYAASSYLSLTPEQWKSHRSYSCQVTHEGSTVEKTVAPTECS light 2: not shown			3.9	135	1.77e+06	
K2AC42 (bispecific antibody, human IgG1, kappa, lambda, 6 is full length; CEACAM arm light chain hybrid, CD47 arm fully kappa) heavy: not shown light 1: DIQMTQSPSSLSASVGDRVTITCQASQRIARTLNWYQQKPGKAPKLLIYNFSALETGVPSRFSGSGSGTDFTFTISSLQPEDIATYYCQQVGLDPNLTTFGGGTKLTVLGQPKAAPSVTLFPPSSEELQANKATLVCLISDFYPGAVTVAWKADSSPVKAGVETTTPSKQSNNKYAASSYLSLTPEQWKSHRSYSCQVTHEGSTVEKTVAPTECS light 2: not shown			2.9	123	1.52e+06	
AC58 (antibody, human IgG1, lambda, V domains shown, Bivalent IgG1 mAb derived from AC21 by lead optimization; 6 carries the IgG1 Fc)) VH: not shown VL: QSVLTQPPSVSGAPGQRVTISCTGSSSNIGVAHDVHWYQQLPGTAPKLLIYDYSERPSGVPDRFSGSKSGTSASLAITGLQAEDEADYYCQSWDNGPNGLVWVFGGGTKLTVLG	0.04	0.04				
AC59 (antibody, human IgG1, lambda, V domains shown, Bivalent IgG1 mAb derived from AC21 by lead optimization; 6 carries the IgG1 Fc)) VH: not shown VL: QSVLTQPPSVSGAPGQRVTISCTGSSSNIGVAHDVHWYQQLPGTAPKLLIYDYSERPSGVPDRFSGSKSGTSASLAITGLQAEDEADYYCQSWDNSENGLIYVFGGGTKLTVLG	0.05	0.05				
